2 molecules from article PMC12079668 (2025) can be followed below.

As a reminder, the Kd is the constant that tells how readily two partners part at equilibrium. Read a low Kd as higher affinity.

Holding throughout (experiment): ITC
For test [1], the target named is T1, full-length mouse Cavin1, His-MBP-tagged (mouse, UniProt O54724 1-392).
T1 chain: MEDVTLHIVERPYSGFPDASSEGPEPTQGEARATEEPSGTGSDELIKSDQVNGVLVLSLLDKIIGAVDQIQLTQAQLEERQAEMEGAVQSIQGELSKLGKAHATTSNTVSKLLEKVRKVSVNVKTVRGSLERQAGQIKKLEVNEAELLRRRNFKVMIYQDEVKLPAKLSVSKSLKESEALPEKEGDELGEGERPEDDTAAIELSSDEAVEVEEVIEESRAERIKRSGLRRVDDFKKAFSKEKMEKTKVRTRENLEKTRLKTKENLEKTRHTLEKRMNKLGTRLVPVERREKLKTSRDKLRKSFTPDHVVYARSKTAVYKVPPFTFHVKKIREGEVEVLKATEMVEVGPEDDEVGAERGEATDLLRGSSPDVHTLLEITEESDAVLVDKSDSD

Test [2] concerns the target T2, mouse Cavin1 HR1 domain (residues 45–155), His-Ub-tagged (mouse, UniProt O54724 45-155).
T2 chain: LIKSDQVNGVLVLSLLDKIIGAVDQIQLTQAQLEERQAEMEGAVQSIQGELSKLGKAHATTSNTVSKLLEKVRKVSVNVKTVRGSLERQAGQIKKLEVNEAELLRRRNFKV

The target of test [3] is T3, mouse Cavin1 HR1 domain 5Q mutant (mouse, UniProt O54724 45-155, Lys115 to glutamine | Arg117 to glutamine | Lys118 to glutamine | Lys124 to …).
T3 sequence: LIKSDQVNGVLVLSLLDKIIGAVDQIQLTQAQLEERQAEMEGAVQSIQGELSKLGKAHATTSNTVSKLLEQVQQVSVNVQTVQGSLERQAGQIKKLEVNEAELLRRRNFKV

The target in test [4] is T4, N-terminal fragment of mouse Cavin1 HR1 domain (residues 45–103) (mouse, UniProt O54724 45-103).
T4 chain: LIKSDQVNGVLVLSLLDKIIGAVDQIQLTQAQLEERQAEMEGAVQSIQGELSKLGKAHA

B1: nanobody NbA12 (VHH)
VHH: QVQLQESGGGLVQAGGSLRLSCAASGFTFDDYAIGWFRQAPGKEREGVSCITSSDGSTYYADSVKGRFTISSDNAKNTVYLQMNSLKPEDTAVYYCAAESWPPLCHYSGMDYWGKGTQVTVSS
Take B1: the dissociation constant (Kd) in test [1] came to 8880 nM; in test [2] it was 500 nM; in test [3], 143 nM; in test [4], 555 nM.

B2: nanobody NbB7 (VHH)
VHH: QVQLQESGGGLVQAGGSLRLSCAVSGIRVNVNAMYWYRQAPGKQRELVAIITTFGSTNYADSAKGRFTISRDNTKNTVYLQMDNLKPEDTAVYYCNAPQFTDRYWGQGTQVTVSS
Consider B2, for which the Kd is 1730 nM in test [1] and 451 nM in test [4].
